Biological target: human CD33 (full length, CD33M) (human) (UniProt P20138)
Test: cell-based or functional assay

Chain of UniProt P20138 (P20138 18-364 limits assumed): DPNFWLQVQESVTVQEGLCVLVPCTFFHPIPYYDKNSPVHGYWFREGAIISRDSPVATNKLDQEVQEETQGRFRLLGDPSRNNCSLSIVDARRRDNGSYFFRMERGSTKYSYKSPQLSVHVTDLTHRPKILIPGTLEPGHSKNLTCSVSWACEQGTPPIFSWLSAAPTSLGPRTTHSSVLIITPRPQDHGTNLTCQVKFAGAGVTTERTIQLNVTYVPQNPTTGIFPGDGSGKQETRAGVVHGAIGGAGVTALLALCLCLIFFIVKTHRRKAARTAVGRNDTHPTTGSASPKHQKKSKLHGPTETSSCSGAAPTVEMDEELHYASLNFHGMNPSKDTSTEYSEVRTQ

Substance: gemtuzumab ozogamicin (antibody)
- IC50 of GO cytotoxicity, HL-60 cells (viable cell number, Celltiter Glo, 72 hours): 0.0355 µg/mL
- IC50 of GO cytotoxicity, THP-1 cells (viable cell number, Celltiter Glo, 72 hours): 0.0163 µg/mL

Source: patent US20200318071A1
